From patent US8980614B2, “Staphylococcus haemolyticus prophage φSH2 endolysin is lytic for Staphylococcus aureus” (The United States of America, as represented by The …, priority 2012, dated 2015)

Experiments:
S. aureus 305 = assay: Plate lysis assay; type: cell-based; details: 100 pmoles and 2-fold serial dilutions spotted on bacterial lawns
Procedure: (§1) Purified proteins (100 pmoles in a 10 μl volume and five two-fold serial dilutions thereof) were spotted onto a freshly spread lawn of log phase staphylococcal cells (OD600 nm of 0.4-0.6, diluted ¼ before plating) that had air dried for 15 min on gridded TSA (tryptic soy agar) plates. The spotted plates were air dried for 10 min in a laminar flow hood and incubated overnight at 37° C. Cleared spots indicating cell lysis were scored within 24 hours of plating the cells.
(§2) The φSH2 full length enzyme and the A1 construct were further tested in plate lysis assays against a set of different staphylococcal strains, including MRSA strains (NRS 382-385), mastitis isolates (305, Tanji 1-26), and coagulase negative staphylococci (non S. aureus) (Table 2). The same molar amounts of both proteins (ranging from 100 pmoles to 3.125 pmoles, in a volume of 10 ul) were spotted onto lawns of mid log phase cells of the respective strains, and the plates were analyzed for lysis zones the next day.

S. aureus NRS 382 = assay: Plate lysis assay; type: cell-based; details: S. aureus NRS 382 (MRSA); 100 pmoles and 2-fold serial dilutions spotted on bacterial lawns
Procedure: as §1, §2

S. aureus NRS 383 = assay: Plate lysis assay; type: cell-based; details: S. aureus NRS 383 (MRSA); 100 pmoles and 2-fold serial dilutions spotted on bacterial lawns
Procedure: as §1, §2

S. aureus NRS 384 = assay: Plate lysis assay; type: cell-based; details: S. aureus NRS 384 (MRSA); 100 pmoles and 2-fold serial dilutions spotted on bacterial lawns
Procedure: as §1, §2

S. aureus NRS 385 = assay: Plate lysis assay; type: cell-based; details: S. aureus NRS 385 (MRSA); 100 pmoles and 2-fold serial dilutions spotted on bacterial lawns
Procedure: as §1, §2

S. aureus Newman = assay: Plate lysis assay; type: cell-based
Procedure: as §1, §2

S. aureus Tanji 19 = assay: Plate lysis assay; type: cell-based; details: 100 pmoles and 2-fold serial dilutions spotted on bacterial lawns
Procedure: as §1, §2

S. aureus Tanji 1 = assay: Plate lysis assay; type: cell-based; details: 100 pmoles and 2-fold serial dilutions spotted on bacterial lawns
Procedure: as §1, §2

S. aureus Tanji 20 = assay: Plate lysis assay; type: cell-based; details: 100 pmoles and 2-fold serial dilutions spotted on bacterial lawns
Procedure: as §1, §2

S. aureus Tanji 26 = assay: Plate lysis assay; type: cell-based; details: 100 pmoles and 2-fold serial dilutions spotted on bacterial lawns
Procedure: as §1, §2

S. chromogenes = assay: Plate lysis assay; type: cell-based; details: 100 pmoles and 2-fold serial dilutions spotted on bacterial lawns
Procedure: as §1, §2

S. epidermidis = assay: Plate lysis assay; type: cell-based; details: 100 pmoles and 2-fold serial dilutions spotted on bacterial lawns
Procedure: as §1, §2

S. hyicus = assay: Plate lysis assay; type: cell-based
Procedure: as §1, §2

S. simulans = assay: Plate lysis assay; type: cell-based
Procedure: as §1, §2

S. warneri = assay: Plate lysis assay; type: cell-based; details: 100 pmoles and 2-fold serial dilutions spotted on bacterial lawns
Procedure: as §1, §2

S. xylocus = assay: Plate lysis assay; type: cell-based; details: 100 pmoles and 2-fold serial dilutions spotted on bacterial lawns
Procedure: as §1, §2

S. aureus Newman cells [1] = assay: Turbidity reduction assay; type: cell-based, Staphylococcus aureus
Procedure: The turbidity reduction assay measures a decrease in optical density of a bacterial suspension due to lysis of the target bacteria by a lytic protein. The assays were performed in a 96-well dish format essentially as described previously (Donovan et al. 2006, supra). In order to reduce the variability of the assay, frozen stocks of S. aureus Newman substrate cells were prepared in a large batch as described by Becker et al. (2009b, supra). Immediately prior to the assay, the frozen cells were thawed, washed, and resuspended in the desired assay buffer such that when 100 μl of cell suspension were added to 100 μl of lysis buffer+/−protein, the final suspension has an OD600nm of ˜1.0.
Protein constructs were assayed at a concentration of 1 μM, and the assay was performed at room temperature, measuring the OD600nm at 1 min intervals for 45 min. Buffer without enzyme served as the control. The steepest slopes of the resulting lysis curves, which correspond to the lytic activities of the proteins, were determined by a sliding window over each group of three consecutive time points for the entire 45 min period. Specific activities were expressed as ΔOD600nm/min/μM, and the “no enzyme” control value was subtracted from each experimental value.
In order to determine the effect of salt concentration on lytic activity, turbidity reduction assays were performed in 10 mM Tris buffers at pH 7.5 with varying NaCl concentrations between 0 mM and 600 mM. Accordingly, the influence of pH was determined by using a series of different buffers with pH values ranging from 3.5 to 10.0. Citrate buffers were used for pH 3.5, 4.5, 5.5, and 6.0, MOPS buffers for pH 6.5, 7.0, and 7.5, Tris buffers for pH 8.0 and 9.0, and Carbonate/bicarbonate buffer for pH 10.0. The concentration of the buffer substance in all buffers used was 20 mM, and the NaCl concentration was 200 mM. To test the effect of bivalent metal ions, assays were performed in 10 mM Tris, 200 mM NaCl, pH 7.5 supplemented with MgCl2, MnCl2, or CaCl2 at different concentrations (0.1 mM, 1 mM, 10 mM), buffer without metal ions serving as control.

S. aureus Newman cells [2] = assay: Zymogram with S. aureus Newman cells embedded in the gel; type: cell-based; details: 5 μg protein
Procedure: All purified proteins were analyzed with 15% SDS-PAGE, using a Kaleidoscope Precision Plus Protein Standard (BioRad, Hercules, Calif.). For zymograms, a 300 mL culture volume equivalent of live mid-log phase (OD600nm=0.4-0.6) cells of S. aureus strain Newman was embedded in the gel during polymerization. The protein samples were boiled in Laemmli sample buffer (BioRad) with β-mercaptoethanol, and electrophoresed with identical buffers and voltage for one hour in both the SDS-PAGE and the zymogram using a Mini-Protean TETRA gel system (BioRad). SDS gels were Coomassie stained and zymograms were washed in excess water and further incubated in deionized water for 60 min, followed by incubation in 10 mM Tris, pH 8.0 with 150 mM or 300 mM NaCl for 80 min. Areas of clearing in the turbid zymogram gel indicate a lytic protein in the gel.

MRSA strain NRS382 = assay: Control of systemic MRSA infection in a murine model; type: in vivo, Balb/c mice
[3] = system: staphylococcal strains (MRSA strains, mastitis isolates, coagulase negative staphylococci); assay: Plate lysis assay, whole set of strains; type: cell-based, Staphylococcus; details: 100 to 3.125 pmoles spotted
Procedure: as §1, §2

[4] = 100 pmoles and 2-fold serial dilutions spotted on bacterial lawns

B1: ΦSH2 full length: Full length C-terminally 6×His-tagged Staphylococcus haemolyticus φSH2 prophage endolysin (1-493), SEQ ID NO:2 (protein)
chain: MKTQAEINKRLDAYRKGTVDSPYRVKVWTSYDNRFYPMEPGCIDVDKSFHAQCADLTIDYILWLTDNEFRIRGNAKDAINPKKNKLPEGWKIVLNRPSTVPRKGWIAVFTDGTYWEYGHIGMVYDGGNTSRFQILEQNWNGWANKKPSLRWDNYYGLTHFIVPPVAKENKAVSSSKQQAPKQKVKKASTKKALPKITKHITGYNMDKRGYNPKGVVLHNDAGGMNYKQYYNNLVNANYDRLARGIAHAYVDRTGIWEAIDESRIAWHVADGTRPGSGNHDFYGIEVNQSLRASDKEFLENEQAVFQFAAEKLKKWGLPANRNTVRLHNEFSQTSCPHRSMVLHTGLDPLYHSITEHARLKLKDYFIKQIRAYMDGKKPTSKVVVSKPGSASTPATRKDANGYRENPHGTLYKEEHATFTANANIITRYVGPFTNMPQAGILKAGQTIIYDEVMKQDGYIWVGYTAYNGKRVYLPVRKWNRETDSVGKLWGVISLEHHHHHH
modifications: C-terminal 6xHis tag; Bacteriophage Phi SH2
Lytic activity (lowest amount of protein producing a lysis zone) (S. aureus 305): ++ (++: 50 pmoles) | Lytic activity (lowest amount of protein producing a lysis zone) (S. aureus NRS 382): − (‘−’ means that no lysis was observed at the highest amount tested (100 pmoles)) | Lytic activity (lowest amount of protein producing a lysis zone) (S. aureus NRS 383): − (‘−’ means that no lysis was observed at the highest amount tested (100 pmoles)) | Lytic activity (lowest amount of protein producing a lysis zone) (S. aureus NRS 384): + (+: 100 pmoles) | Lytic activity (lowest amount of protein producing a lysis zone) (S. aureus NRS 385): − (‘−’ means that no lysis was observed at the highest amount tested (100 pmoles)) | Lytic activity (lowest amount of protein producing a lysis zone) (S. aureus Newman; [4]): − (‘−’ means that no lysis was observed at the highest amount tested (100 pmoles)) | amount of protein causing a lysis zone (S. aureus Newman; 100 to 3.125 pmoles spotted): not lysed by the highest amount | Lytic activity (lowest amount of protein producing a lysis zone) (S. aureus Tanji 19): ++ (++: 50 pmoles) | Lytic activity (lowest amount of protein producing a lysis zone) (S. aureus Tanji 1): ++ (++: 50 pmoles) | Lytic activity (lowest amount of protein producing a lysis zone) (S. aureus Tanji 20): ++ (++: 50 pmoles) | Lytic activity (lowest amount of protein producing a lysis zone) (S. aureus Tanji 26): + (+: 100 pmoles) | Lytic activity (lowest amount of protein producing a lysis zone) (S. chromogenes): +++ (+++: 25 pmoles) | Lytic activity (lowest amount of protein producing a lysis zone) (S. epidermidis): − (‘−’ means that no lysis was observed at the highest amount tested (100 pmoles)) | Lytic activity (lowest amount of protein producing a lysis zone) (S. hyicus; [4]): ++++++ (++++++: ≦3.125 pmoles) | amount of protein causing a lysis zone (S. hyicus; 100 to 3.125 pmoles spotted): lowest amount tested | Lytic activity (lowest amount of protein producing a lysis zone) (S. simulans; [4]): + (+: 100 pmoles) | amount of protein causing a lysis zone (S. simulans; 100 to 3.125 pmoles spotted): 100 pmol | Lytic activity (lowest amount of protein producing a lysis zone) (S. warneri): +++ (+++: 25 pmoles) | Lytic activity (lowest amount of protein producing a lysis zone) (S. xylocus): +++ (+++: 25 pmoles) | NaCl concentration of optimum lytic activity (S. aureus Newman cells [1]; 1 μM protein, 10 mM Tris pH 7.5, NaCl 0-600 mM): 300 mM | lytic activity in turbidity reduction assays (in words) (S. aureus Newman cells [1]; 1 μM protein, different NaCl concentrations): moderate lytic activity | increase of lytic activity by Ca2+ (S. aureus Newman cells [1]; 10 mM CaCl2, relative to 0 mM, 10 mM Tris, 200 mM NaCl, pH 7.5): three-fold | effect of Mg2+ on lytic activity (S. aureus Newman cells [1]; 0.1-10 mM MgCl2, 10 mM Tris, 200 mM NaCl, pH 7.5): not significantly alter | effect of Mn2+ on lytic activity (S. aureus Newman cells [1]; 0.1-10 mM MnCl2, 10 mM Tris, 200 mM NaCl, pH 7.5): slightly inhibitory effect | lysis in zymogram (S. aureus Newman cells [2]; after incubation in deionized water for 60 min): faint zones of lysis | lysis in zymogram (S. aureus Newman cells [2]; water 60 min, then 10 mM Tris, 150 mM NaCl, pH 8.0 up to 80 min): considerably weaker | lysis in zymogram (S. aureus Newman cells [2]; water 60 min, then 10 mM Tris, 300 mM NaCl, pH 8.0 for 80 min): pronounced lytic band | % Survival (MRSA strain NRS382; 0 hours, mice infected i.p. with MRSA NRS382, treated 30 min post infection (φSH2 200 μg/mouse i.p.; Vancomycin 375 μg/mouse s.c.; Oxacillin 1250 μg/mouse s.c.)): 100% | % Survival (MRSA strain NRS382; 4 hours, same infection and treatment): 100% | % Survival (MRSA strain NRS382; 8 hours, same infection and treatment): 100% | % Survival (MRSA strain NRS382; 12 hours, same infection and treatment): 100% | % Survival (MRSA strain NRS382; 16 hours, same infection and treatment): 100% | % Survival (MRSA strain NRS382; 20 hours, same infection and treatment): 100% | % Survival (MRSA strain NRS382; 24 hours, same infection and treatment): 100% | % Survival (MRSA strain NRS382; 28 hours, same infection and treatment): 100% | % Survival (MRSA strain NRS382; 32 hours, same infection and treatment): 100% | % Survival (MRSA strain NRS382; 36 hours, same infection and treatment): 100% | % Survival (MRSA strain NRS382; 40 hours, same infection and treatment): 100% | % Survival (MRSA strain NRS382; 44 hours, same infection and treatment): 100% | % Survival (MRSA strain NRS382; 48 hours (end of the experiment), same infection and treatment): 100% | strains against which lytic activity was displayed ([3]; 16 strains tested): 11 out of 16 | MRSA strains lysed ([3]; four MRSA strains (NRS 382-385)): one out of four
